B1: TCN-550 (5096_F06) (antibody, V domains shown)
VH: QVQLQESGPGLVKPSETLSLTCTVSGASINSHYWSWIRQPPGKGLEWIGYVYYSGSTTYNPSLKSRVTLSVDTSKNQFSLNLSSVTAADTAFYYCARHPYDVLTGSGDWFDPWGQGTLVTVSS
VL: SYVLTQAPSVSVAPGQTARITCGGNAIGSKKVHWYQHKAGQAPVLVVYDDTDRPSGIPERFSGSNSWSTATLTINRVEAGDEADYYCQVWDFTIDHVVFGGGTKLTVL
B2: TCN-557 (5081_A04) (antibody, V domains shown)
VH: QVQLVQSGAEVKKPGASVKVSCKASGHTFTGYYIHWVRQAPGQGLEWMGWINPDSGATSSAQNFQGRVTMTGDTSSSTAYMELSRLSFDDTAVYYCARVLFTSPFDFWGEGTLVTVSS
VL: QAVVTQEPSLAVSPGGTVTLTCGSSTGAVTRGHYPYWFQQKPGQAPRALIYDSAGNRHSWTPARFSGSLLGGKAALTLSGAQPEDEAEYYCLLSYSGVWVFGGGTKLTVL
B3: TCN-552 (5249_I23) (antibody, V domains shown)
VH: QVQVVQSGAEVKKPGSSVRVSCQASGGTFMNYAIIWVRRAPGQGLEWMGGIIPVFPTPNYAQMFQGRVTISTDESRSTSFLELTNLRYEDTAVYYCARRIYHGGNSGFDFWGQGTLVTVSS
VL: EIVLTQSPATLSLSPGERATLSCRASQSVGNYLAWYQQKPGQAPRLLIYDSSNRAPGIPARFSGSGSGTDFTLTISSLAPEDFAVYYCQQRSKWPPMYSFGHGTKLEIK
B4: TCN-553 (5261_C18) (antibody, V domains shown)
VH: QVQVVQSGTEVKKPGSSVKVSCQTSGGRFMSYAITWVRQAPGQGLEWMGGIVPVFGTANYAQKFQGRVTITTDDSTRTAYMELSSLRSEDTAVYYCGFRYGSGYGFDSWGQGTLVTVSS
VL: EIVLTQSPGTLSLSPGERATLSCRASQSVSSSYLAWYQKKPGQAPRLLIYGASTRATGIPDRFTGSGSGTDFTLSISRLEPEDFAVYYCQHFGTSVFTFGGGTKVEIK
B5: TCN-546 (5089_L08) (antibody, V domains shown)
VH: QVQLQQWGAGLLKPSETLSLTCGVYGGSLSDYYWSWIRQPPGKGLEWIGEINHSGGTNYNPSLKRRVTISVDTSKKQFSLKMNSVTAADTAVYYCARGTDPDTEVYCRAGNCAAFDFWGQGTLVTVSS
VL: EIVLTQSPGTLSLSPGERATLSCRASHFVIGRAVAWYQQKPGQAPRLLIYGASSRATGIPDRFSGSGSGTDFTLTISRLETEDFAVFYCQHYGSSPRYAFGQGTKLEIK
B6: TCN-539 (5056_A08) (antibody, V domains shown)
VH: QVQLVESGGGVVQPGRSLRLSCAASEITFITYAMHWVRQAPGKGLEWVALISDDGSNKFYADSVKGRFTISRDNSKNTLYLQMNSLRAEDTAAYYCAREGVYFDSGTYRGYFDYWGQETLVTVSS
VL: EIVLTQSPATLSLSPGERATLSCRASQSVSSYLAWYQQKPGQAPRLLIYDASNRATGIPARFSGSGSGTDFTLTISSLEPEDFAVYYCQQRSHWPPITFGQGTRLEIK
B7: TCN-543 (5081_G23) (antibody, V domains shown)
VH: QVHLVQSGAEVRKPGDSVKVSCKTSGYTFSTYPVAWVRQVPGQGLEWMGWISTYNGNTNFAQNFQGRVTLTTDTTTNTAYMEVRSLKFDDTAVYYCARVEGSYRDFWNNQNRFDPWGQGTLVTVSS
VL: SYVLTQPPSVSVAPGQTARISCGGSNIGGKSVHWYQQKPGQAPVLVVYDDSGRPSGIPERFSGSNSGDTATLTISRVEAGDEADYFCQVWDNFGGVFGTGTKVTVL
B8: TCN-540 (5060_F05) (antibody, V domains shown)
VH: QVQLVQSGGGVVQPGRSLRLSCAASGFTFSSYAMHWVRQAPGKGLEWVAIISYDGNDQYYTDSVKGRFTISRDSSKVYLQMHRLRPEDTAVYYCAKEFETSGYFHGSFDYWGQGILVTVSS
VL: QSALTQPASVSGSPGQSITISCTGTSSDVGGYNYVSWYQQHPGKAPKLLIYEVTNWPSGVSNRFSGSKSGNTASLTISGLQAEDEADYYCSSYAGSSTWVFGGGTRVTVL
B9: TCN-538 (3206_O17) (antibody, V domains shown)
VH: QITLKESGPTLVKPTQTLTLTCVFSGFSLSITGVRVGWIRQPPGKALEWLALISWDDEKHYSPSLQSRLTITKDTSKNQVVLTMTNLDPVDTATYYCARSTDRGHVLRYFGWMLPGDAFDVWGQGTMVTVSS
VL: DIVMTQSPDFLPVSLGERATINCKSSQRVLYSSNNKNYLAWYQLKPGQPPKLIIYWASTRESGVPDRFSGSGSGTEFTLTISSLQAEDVAVYYCQQYYSRPYTFGQGTKLEIK

Each binder was assayed against recombinant soluble homotrimeric HA, A/Netherlands/219/03 H7N7 (Influenza A virus A/Netherlands/219/03(H7N7)) (assay: microarray, transfection SN IgG, trimeric HA). Conditions: remark: other sources report otherwise.

| Binder | Trimeric HA Binding: RLU |
| --- | --- |
| B1 | 3250 RLU |
| B2 | 53700 RLU |
| B3 | 7420 RLU |
| B4 | 7530 RLU |

The binders below were run against recombinant soluble homotrimeric HA, A/swine/Ontario/01911-2/99 H4N6 (Influenza A virus A/Swine/Ontario/01911-2/99 (H4N6)) (assay: microarray, transfection SN IgG, trimeric HA). Conditions: remark: other sources report otherwise.

| Binder | Trimeric HA Binding: RLU |
| --- | --- |
| B1 | 1700 RLU |
| B2 | 41500 RLU |
| B3 | 9080 RLU |
| B4 | 12200 RLU |

These binders were tested against recombinant soluble homotrimeric HA of A/Anhui/1/05 (H5N1) (Influenza A virus A/Anhui/1/2005(H5N1)) (assay: trimeric HA microarray, transfection supernatant set 5). Conditions: remark: other sources report otherwise.

| Binder | Trimeric HA Binding: RLU |
| --- | --- |
| B5 | 33300 RLU |
| B6 | 3240 RLU |
| B7 | 2630 RLU |
| B8 | 2190 RLU |

The binders below were run against recombinant soluble homotrimeric HA of A/California/4/09 (H1N1) (Influenza A virus A/California/04/2009(H1N1)) in the same assay as above. Conditions: remark: other sources report otherwise.

| Binder | Trimeric HA Binding: RLU |
| --- | --- |
| B5 | 1080 RLU |
| B6 | 1050 RLU |
| B9 | 16000 RLU |
| B7 | 2340 RLU |
| B8 | 984 RLU |

What follows are binders tested against recombinant soluble homotrimeric HA of A/Egypt/3300-NAMRU3/08 (H5N1) (Influenza A virus A/Egypt/3300-NAMRU3/2008(H5N1)) in the same assay as above. Conditions: remark: other sources report otherwise.

| Binder | Trimeric HA Binding: RLU |
| --- | --- |
| B5 | 53000 RLU |
| B9 | 41000 RLU |
| B7 | 17600 RLU |
| B8 | 15600 RLU |

Each binder was assayed against recombinant soluble homotrimeric HA of A/Hong Kong/156/97 (H5N1) (Influenza A virus A/Hong Kong/156/97 (H5N1)) in the same assay as above. Conditions: remark: other sources report otherwise.

| Binder | Trimeric HA Binding: RLU |
| --- | --- |
| B5 | 1240 RLU |
| B6 | 1450 RLU |
| B9 | 5170 RLU |
| B7 | 1430 RLU |
| B8 | 1550 RLU |

Each binder was assayed against recombinant soluble homotrimeric HA of A/Indonesia/5/05 (H5N1) (Influenza A virus A/Indonesia/5/2005(H5N1)) in the same assay as above. Conditions: remark: other sources report otherwise.

| Binder | Trimeric HA Binding: RLU |
| --- | --- |
| B5 | 40900 RLU |
| B6 | 8950 RLU |
| B9 | 13700 RLU |
| B7 | 1830 RLU |
| B8 | 2570 RLU |

The binders below were run against recombinant soluble homotrimeric HA of A/Japan/305/57 (H2N2) (Influenza A virus A/Japan/305/1957(H2N2)) in the same assay as above. Conditions: remark: other sources report otherwise.

| Binder | Trimeric HA Binding: RLU |
| --- | --- |
| B5 | 1730 RLU |
| B6 | 2560 RLU |
| B9 | 6620 RLU |
| B7 | 2780 RLU |
| B8 | 47900 RLU |

What follows are binders tested against recombinant soluble homotrimeric HA of A/Netherlands/219/03 (H7N7) (Influenza A virus A/Netherlands/219/03(H7N7)) in the same assay as above. Conditions: remark: other sources report otherwise.

| Binder | Trimeric HA Binding: RLU |
| --- | --- |
| B5 | 3740 RLU |
| B6 | 15700 RLU |
| B9 | 4370 RLU |
| B7 | 12900 RLU |
| B8 | 4390 RLU |

The binders below were run against recombinant soluble homotrimeric HA of A/Solomon Islands/3/06 (H1N1) (Influenza A virus A/Solomon Islands/3/2006(H1N1)) in the same assay as above. Conditions: remark: other sources report otherwise.

| Binder | Trimeric HA Binding: RLU |
| --- | --- |
| B6 | 871 RLU |
| B9 | 1960 RLU |
| B7 | 43500 RLU |
| B8 | 1180 RLU |

What follows are binders tested against recombinant soluble homotrimeric HA of A/South Carolina/1/18 (H1N1) (Influenza A virus A/South Carolina/1/18 (H1N1)) in the same assay as above. Conditions: remark: other sources report otherwise.

| Binder | Trimeric HA Binding: RLU |
| --- | --- |
| B5 | 955 RLU |
| B6 | 5330 RLU |
| B9 | 8430 RLU |
| B7 | 28300 RLU |
| B8 | 1360 RLU |

The binders below were run against recombinant soluble homotrimeric HA of A/Vietnam/1203/04 (H5N1) (Influenza A virus A/VietNam/1203/2004(H5N1)) in the same assay as above. Conditions: remark: other sources report otherwise.

| Binder | Trimeric HA Binding: RLU |
| --- | --- |
| B5 | 47100 RLU |
| B6 | 53300 RLU |
| B9 | 52400 RLU |
| B7 | 33100 RLU |
| B8 | 42500 RLU |

Each binder was assayed against recombinant soluble homotrimeric HA of A/Wisconsin/67/05 (H3N2) (Influenza A virus A/Wisconsin/67/2005(H3N2)) in the same assay as above. Conditions: remark: other sources report otherwise.

| Binder | Trimeric HA Binding: RLU |
| --- | --- |
| B5 | 28500 RLU |
| B6 | 58800 RLU |
| B7 | 37000 RLU |
| B8 | 53000 RLU |

Each binder was assayed against recombinant soluble homotrimeric HA of A/chicken/Vietnam/NCVD-016/08 (H5N1) (Influenza A virus A/chicken/Vietnam/NCVD-016/2008(H5N1)) in the same assay as above. Conditions: remark: other sources report otherwise.

| Binder | Trimeric HA Binding: RLU |
| --- | --- |
| B5 | 2940 RLU |
| B6 | 3500 RLU |
| B9 | 2950 RLU |
| B7 | 5880 RLU |
| B8 | 1510 RLU |

These binders were tested against recombinant soluble homotrimeric HA of A/duck/Yangzhou/02/05 (H8N4) (Influenza A virus A/duck/Yangzhou/02/2005(H8N4)) in the same assay as above. Conditions: remark: other sources report otherwise.

| Binder | Trimeric HA Binding: RLU |
| --- | --- |
| B5 | 11400 RLU |
| B9 | 4060 RLU |
| B7 | 13100 RLU |
| B8 | 6080 RLU |

Each binder was assayed against recombinant soluble homotrimeric HA of A/northern shoveler/California/HKWF115/07 (H6) (Influenza A virus A/northern shoveler/California/HKWF115/2007(H6N1)) in the same assay as above. Conditions: remark: other sources report otherwise.

| Binder | Trimeric HA Binding: RLU |
| --- | --- |
| B5 | 2430 RLU |
| B6 | 2860 RLU |
| B9 | 8900 RLU |
| B7 | 2510 RLU |
| B8 | 2460 RLU |

These binders were tested against recombinant soluble homotrimeric HA of A/swine/Ontario/01911-2/99 (H4N6) (Influenza A virus A/Swine/Ontario/01911-2/99 (H4N6)) in the same assay as above. Conditions: remark: other sources report otherwise.

| Binder | Trimeric HA Binding: RLU |
| --- | --- |
| B5 | 4610 RLU |
| B9 | 3350 RLU |
| B7 | 2870 RLU |

Reference: patent US20150086555A1
